This note sets out measurements from USRE48805 (VISION GLOBAL, dated 2021).

In the test the target is human serum albumin (HSA) (human, UniProt P02768 25-609). The experiment in a line: native polyacrylamide gel (10%) shift after 60 min incubation at room temperature at the stated HSA:AAD molar ratios.
Chain of human serum albumin (HSA) (P02768 25-609 limits assumed): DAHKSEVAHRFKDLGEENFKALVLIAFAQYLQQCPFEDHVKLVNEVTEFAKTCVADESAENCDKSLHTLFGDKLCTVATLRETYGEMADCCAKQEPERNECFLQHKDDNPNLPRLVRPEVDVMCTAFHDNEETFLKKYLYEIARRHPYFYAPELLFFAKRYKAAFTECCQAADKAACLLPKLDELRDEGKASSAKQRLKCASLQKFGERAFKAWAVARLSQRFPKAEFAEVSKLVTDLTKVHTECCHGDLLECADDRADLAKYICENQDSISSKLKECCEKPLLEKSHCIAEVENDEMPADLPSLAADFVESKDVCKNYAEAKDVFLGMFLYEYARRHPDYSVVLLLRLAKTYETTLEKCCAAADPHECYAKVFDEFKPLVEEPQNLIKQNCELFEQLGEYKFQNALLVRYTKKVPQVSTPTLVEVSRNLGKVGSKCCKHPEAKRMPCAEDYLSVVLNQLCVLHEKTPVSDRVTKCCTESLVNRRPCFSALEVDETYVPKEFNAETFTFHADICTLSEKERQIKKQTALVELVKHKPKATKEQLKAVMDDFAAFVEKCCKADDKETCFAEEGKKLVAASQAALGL

B1: albumin-binding arginine deiminase (AAD) fusion protein His-ABD-PolyN-ADI (enzyme)
chain: MHHHHHHDEAVDANSLAEAKVLANRELDKYGVSDYYKNLINNAKTVEGVKALIDEILAALPSGSNNNNNNGSGGSVFDSKFKGIHVYSEIGELESVLVHEPGREIDYITPARLDELLFSAILESHDARKEHKQFVAELKANDINVVELIDLVAETYDLASQEAKDKLIEEFLEDSEPVLSEEHKVVVRNFLKAKKTSRELVEIMMAGITKYDLGIEADHELIVDPMPNLYFTRDPFASVGNGVTIHYMRYKVRQRETLFSRFVFSNHPKLINTPWYYDPSLKLSIEGGDVFIYNNDTLVVGVSERTDLQTVTLLAKNIVANKECEFKRIVAINVPKWTNLMHLDTWLTMLDKDKFLYSPIANDVFKFWDYDLVNGGAEPQPVENGLPLEGLLQSIINKKPVLIPIAGEGASQMEIERETHFDGTNYLAIRPGVVIGYSRNEKTNAALEAAGIKVLPFHGNQLSLGMGNARCMSMPLSRKDVKW
As to B1, the binding result is recorded as “binds”.
